Test results taken from the nanobody polyreactivity screen of Harvey et al. (2022).

Test: yeast display, Sf9 membrane polyspecificity reagent, FACS + sequencing; frameworks hold sequencing errors
Procedure, shortened: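 Galactose-induced (36–48 hours) yeast carrying a synthetic nanobody display library were exposed to 10% biotinylated, detergent-solubilized Sf9 membrane reagent at 4 °C for 1 hour. FACS followed streptavidin microbead enrichment, using low and high (top ~1%) gates for expression (anti-HA) and reagent binding (streptavidin). Colony PCR, MiSeq 2 × 250 sequencing and CDR-length filtering followed. Labels for polyreactivity reflect the gate of origin.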

Sequence: QVQLVESGGGLVQAGGSLRLSCAASGSIFGYNVMGWYRQAPGKEWELVAAITYSGGSTYYADSVKGRFTISRDNAKNTVYLQMNSLKPEDTAVFYCNAVTLRRIYSNPEYDSWGQGTQVSVSS
- polyreactivity (PSR sort gate): high polyreactivity

Sequence: QVQLVESGGGLVQAGGSLRLSCAASGSIFGYYAMGWSRQAPGKEREVVAAISASGGSTYYADSVKGRFTISRDTAKNTVYLQMNSLKPEDTAVYYCAAVRSVTYIWARYPYGLEYWGQGTQVTVSS
- polyreactivity (PSR sort gate): high polyreactivity

Sequence: QVQLVESGGGLVQAGGSLRLSCAASGSIFGYYAMGWYRPAPGKERELVAAISGSAGTTYYADSVKGRFTISRDNAKNTVYLQMNSLKPEDTAVYYCAKYYPYIQADYGYDYWGQGTQVTVSS
- polyreactivity (PSR sort gate): low polyreactivity

Sequence: QVQLVESGGGLVQAGGSLRLSCAASGSIFGYYAMGWYRQAPGKEREFVATISTSGVSTYYADSVKGRFTISRDNAKNTVYLQMNSLKPEDTAVYYCNAYLWYTGWDYDGEDYWGQGTQVTVSS
- polyreactivity (PSR sort gate): low polyreactivity

Sequence: QVQLVESGGGLVQAGGSLRLSCAASGSIFGYYAMGWYRQAPGKERELVAAIDSGGSTYYADSVKGRFTISRDNAKNTVYLQMNSLKPEDTAVYYCATDYSGLRYDYWGQGTQVTVSS
- polyreactivity (PSR sort gate): low polyreactivity

Sequence: QVQLVESGGGLVQAGGSLRLSCAASGSIFGYYAMGWYRQAPGKERELVAAIRRSGGSTYYADSVKGRFTISRDNAKNTVYLQMNSLKPEDTAVYYCAARFKSSDWHYYYWGQGTQVTVSS
- polyreactivity (PSR sort gate): high polyreactivity

Sequence: QVQLVESGGGLVQAGGSLRLSCAASGSIFGYYAMGWYRQAPGKERELVAAIRTTGGRTYYADSVKGRFTISRDNAKNTVYLQMNSLKPEDTAVYYCNALQAGVSYDYWGQGTQVTVSS
- polyreactivity (PSR sort gate): high polyreactivity

Sequence: QVQLVESGGGLVQAGGSLRLSCAASGSIFGYYAMGWYRQAPGKERELVAAISGSGGSTYYADSVKGRFTISRDNAKNTVYLQMNSLKPEDTAVYYCDRVRGGYDKMYYWGQGTQVTVSS
- polyreactivity (PSR sort gate): high polyreactivity

Sequence: QVQLVESGGGLVQAGGSLRLSCAASGSIFGYYAMGWYRQAPGKERELVAAISSSGASTYYADSVKGRFTISRDNAKNTVYLQMNSLKPEDTAVYYCNADRRYPTRGGYWGQGTQVTVSS
- polyreactivity (PSR sort gate): high polyreactivity

Sequence: QVQLVESGGGLVQAGGSLRLSCAASGSIFGYYAMGWYRQAPGKERELVAAISYSGGSTYYADSVKGRFTISRDNAKNTVYVQMNSLKPEDTAVYYCAARYASTPYARFGYWGQGSQVTVSS
- polyreactivity (PSR sort gate): high polyreactivity

Sequence: QVQLVESGGGLVQAGGSLRLSCAASGSIFGYYAMGWYRQAPGKERELVAAITTRGGRTYYADSVKGRFTISRDNAKNTVYLQMNSLNPEDTAVYYCAARTGRGRYDYWGQGTQVTVSS
- polyreactivity (PSR sort gate): high polyreactivity

Sequence: QVQLVESGGGLVQAGGSLRLSCAASGSIFGYYAMGWYRQAPGKERELVAAITWRGGTYYADSVKGRFTISRDNAKNTVYLQMNSLKPEDTAVYYCAAPRLATYQWYDYWGQGTQVTVSS
- polyreactivity (PSR sort gate): high polyreactivity

Sequence: QVQLVESGGGLVQAGGSLRLSCAASGSIFGYYAMGWYRQAPGKERELVAAITYSGGRTYYADSVKGRFTISRDNAKNTVYLQMNSLKPEDTAVYYCARAPPGDRFVRYDYWGQGTQVTVSS
- polyreactivity (PSR sort gate): high polyreactivity

Sequence: QVQLVESGGGLVQAGGSLRLSCAASGSIFGYYAMGWYRQAPGKERELVASITRSGDTTYYADSVKGRFTISRDNAKNTVYLQMNSLKPEDTAVYYCAARRWRWYYDGFVRMDYWGQGTQVTVSS
- polyreactivity (PSR sort gate): high polyreactivity

Sequence: QVQLVESGGGLVQAGGSLRLSCAASGSIFGYYAMGWYRQAPGKERELVASITSDTSTNYADSVKGRFTISRDNAQNTVYLQMNSLKPEDTAVYYCNARIAKWKRGYSSTFDYWGQGTQVTVSS
- polyreactivity (PSR sort gate): low polyreactivity

Sequence: QVQLVESGGGLVQAGGSLRLSCAASGSIFGYYAMGWYSQAPGKERELVAAFTASGGSTYYADSVKGRFTISRDNAKNTVYFQMNSLKPEDTAVYYCAAGTHTDYGRYYYWGQGTQVTVSS
- polyreactivity (PSR sort gate): low polyreactivity

Sequence: QVQLVESGGGLVQAGGSLRLSCAASGSIFGYYAMGWYTQAPGKERELVASITRGGSTYYADSVKGRFTISRDNAKNTVYLQMNSLKPEDTAVYYCAAAQWWFRVRGARYYYWGQGTQVTVSS
- polyreactivity (PSR sort gate): high polyreactivity

Sequence: QVQLVESGGGLVQAGGSLRLSCAASGSIFGYYTIGWYRQAPGKEREFVAAITQSGGSTYYADSVKGRFTISRDNAKNTVYLQMNSLKPEDTAVYYCAKQGYLKWGGTGDYWGQGTQVTVSS
- polyreactivity (PSR sort gate): high polyreactivity

Sequence: QVQLVESGGGLVQAGGSLRLSCAASGSIFGYYTMGWYIQAPGKERELVAAITSGGSTNYADSVKGRFTISRDNAKNTVYLQMNSLKPEDTAVYYCAKVSYYPWRYDYWGQGTQVTVSS
- polyreactivity (PSR sort gate): low polyreactivity

Sequence: QVQLVESGGGLVQAGGSLRLSCAASGSIFGYYTMGWYIQAPGKERELVATITSGGSTYYADSVKGRFTISRDNAKNSVSLQMNSLKPEDTAVYYCNADRYWRVYWGQGTQVTVSS
- polyreactivity (PSR sort gate): high polyreactivity

Sequence: QVQLVESGGGLVQAGGSLRLSCAASGSIFGYYTMGWYRQAPGKERELVAAISRRGGSTYYADSVKGRFTISRDNAKKTVYLQMNSLKPEDTAVYYCAADVARSRHFEMDYWGQGTQVTVSS
- polyreactivity (PSR sort gate): high polyreactivity

Sequence: QVQLVESGGGLVQAGGSLRLSCAASGSIFGYYTMGWYRQAPGKERELVAAITRSGATTFYADSVKGRFTISRDKAKNTVYLQMNSLKPEDTAVYYCAAQARGYTRGYWGQGTQVTVSS
- polyreactivity (PSR sort gate): high polyreactivity

Sequence: QVQLVESGGGLVQAGGSLRLSCAASGSIFGYYTMGWYRQAPGKERELVAAITSGGSTNYADSVKGRFTISRDNAKNTVYLQMNSLKPEDTSVYYCAKVSYYPWRYDYWGQGTQVTVSS
- polyreactivity (PSR sort gate): low polyreactivity

Sequence: QVQLVESGGGLVQAGGSLRLSCAASGSIFGYYTMGWYRQAPGKERELVAAITSGGSTNYADSVKGRFTISRDNAKNTVYLQMNSLKPEETAVYYCAKVSYYTWRYDYWGQGTQVTVSS
- polyreactivity (PSR sort gate): low polyreactivity

Sequence: QVQLVESGGGLVQAGGSLRLSCAASGSIFGYYTMGWYRQAPGKERELVARITRGGSTYYADSVKGRFTISRDNAKNTVYLQMNSLKPEDTAVYYCAARRVNAGWTYGLRGNYWGQGTQVTVSS
- polyreactivity (PSR sort gate): low polyreactivity

Sequence: QVQLVESGGGLVQAGGSLRLSCAASGSIFGYYVMGWYRPAPGKERELVAAITRSGSTYYADSVKGRFTISRDNAKNTVYLQMNSLKPEDTAGYYCAADGSYYWYPHTTYDYWGQGTQVTVSS
- polyreactivity (PSR sort gate): low polyreactivity

Sequence: QVQLVESGGGLVQAGGSLRLSCAASGSIFHANAMGWYRQAPGKERELVAAITRSGRSTYYADSVKGRFTISRDNAKNTVYLQMNSLKPEDTAVYYCAARYYAGGLSSYDYWGQGTQVTVSS
- polyreactivity (PSR sort gate): high polyreactivity

Sequence: QVQLVESGGGLVQAGGSLRLSCAASGSIFHGNAMGWYRQAPGKERELVAAITGRGVSTYYADSVKGRFTISRDNAKNTVYLQMKSLKPEDTAVYYCAAVRSKYWYYQGGYSSYGYWGQGTQVTVSS
- polyreactivity (PSR sort gate): high polyreactivity

Sequence: QVQLVESGGGLVQAGGSLRLSCAASGSIFHIYAIGWYRQAPGKERELVAAISWRGDSTSYADSVKGRFTISRDNAKNTVYLQMNSLKPEDTAVYYCARGYGGYRGYYAKRFGYWGQGTQVTVSS
- polyreactivity (PSR sort gate): high polyreactivity

Sequence: QVQLVESGGGLVQAGGSLRLSCAASGSIFHLYAMGWYRQAPGKEREFVAAISSSGGRTYYADSVKGRFTISRDNAKNTVYLQMNSLKPEDTAVYYCATAEQYGTKLRQVSYQYDYWGHGTQVTVSS
- polyreactivity (PSR sort gate): low polyreactivity

Sequence: QVQLVESGGGLVQAGGSLRLSCAASGSIFHPYAMGWYRQAPGKERELVAAISGGGTNTYYADSVKGRFTISRDNAKNTVYLQMNSLKPEDTAVYYCAAERYYWGQGTQVTVSS
- polyreactivity (PSR sort gate): high polyreactivity

Sequence: QVQLVESGGGLVQAGGSLRLSCAASGSIFHPYAMGWYRQAPGKERELVAAISKSGGNTYYADSVKGRFTISRDNAKNTVYLQMNSLKPEDTAVYYCAALDYWGQVTQVTVSS
- polyreactivity (PSR sort gate): low polyreactivity

Sequence: QVQLVESGGGLVQAGGSLRLSCAASGSIFHPYGMGWYRQAPGKERELVARISWSTSSTNYADSVKGRFTISRDNAKNTVYLQMNSLKPEDTAVYYCAADYYVFPGYDYWGQGTQVTVSS
- polyreactivity (PSR sort gate): high polyreactivity

Sequence: QVQLVESGGGLVQAGGSLRLSCAASGSIFHPYGMGWYRQAPGKVRELVAAMTSSGGDTYYADSVKGRFTISRDNAKNTVYLQMNSLKPEDTAVYYCAATGLPGYYAYDYWGQGTQVTVSS
- polyreactivity (PSR sort gate): low polyreactivity

Sequence: QVQLVESGGGLVQAGGSLRLSCAASGSIFHRNTMGWYRQAPGKEREFVAGISWGGGRTYYADSVKGRFTISRDNAKNTVYLQMNSLKPEETAVYYCAAKTGGGGRLSTVYYWGQGTQVTLSS
- polyreactivity (PSR sort gate): high polyreactivity

Sequence: QVQLVESGGGLVQAGGSLRLSCAASGSIFHRYAMGWYTQAPGKERELVAAISWSGGSTYYADSVKGRFTISRDNAKNTVYLQMNSLKPEDTAVYYCNRVAWNYGFGSSAYGYWGQGTQVTVSS
- polyreactivity (PSR sort gate): high polyreactivity

Sequence: QVQLVESGGGLVQAGGSLRLSCAASGSIFHYNAMGWYIQAPGKERELVASISSGGRTYYADSVKGRFTISRDNAKNTVYLQMNSLKPEDTAVYYCAAENFWQTKEYDYWGQGTQVTVSS
- polyreactivity (PSR sort gate): low polyreactivity

Sequence: QVQLVESGGGLVQAGGSLRLSCAASGSIFIANAMGWYRKAPGKERELVAAISRSGSTTYYADSVKGRFTISRDNAKNTVYLQMNSLKPEDTAVNYCNARYSLHSYYWFIYDSWGQGTQVTVSS
- polyreactivity (PSR sort gate): low polyreactivity

Sequence: QVQLVESGGGLVQAGGSLRLSCAASGSIFIANTMGWYRQAPGKERELVAAISSDGGSTYYADSVKGRFTISRDNAKNTVYLQMNSLKPVDTAVYYCAVDGLEIGDTGFDYWGQGTQVTVSS
- polyreactivity (PSR sort gate): low polyreactivity

Sequence: QVQLVESGGGLVQAGGSLRLSCAASGSIFIAYGMGWYRQEPGKERELVAAITVSGGNTYYADSVKGRFTISRDNAKNTVYLQMNSLKPEDTAVYYCAADYWYYYGKVLYDYWGQGTQVTVSS
- polyreactivity (PSR sort gate): low polyreactivity

Sequence: QVQLVESGGGLVQAGGSLRLSCAASGSIFIGYAMGWYRQAPGKERELVAAITNGGRTYYADSVKGRFTISRDNAKNTVYLQMNSLKPEDTAVYYCAAVPSQTYRRTPYLWHDYWGQGTQVTVSS
- polyreactivity (PSR sort gate): high polyreactivity

Sequence: QVQLVESGGGLVQAGGSLRLSCAASGSIFIIYAMGWYRQAPGKERALVAAISRGGTSTYADSVKGRFTISRDNAKNTVYLQMNSLKPEDTAVYYCNARRSSRTNRYNYWGQGTQVTVSS
- polyreactivity (PSR sort gate): high polyreactivity

Sequence: QVQLVESGGGLVQAGGSLRLSCAASGSIFIPYAMGWYRQAPGKERELVAAIRDSGASTYYADSVKGRFTISRDNAKNTVYLQMNSLKPEDTAVYYCAVRFYDWRYYYWGQGTQVTVSS
- polyreactivity (PSR sort gate): high polyreactivity
